Reference: patent US20240059741A1, “COMPOSITION FOR PREVENTION OR TREATMENT OF SARS-COV-2 INFECTION” (priority 2020, published 2024)
Where a SMILES comes first, the peptide text is derived from it. Bridges are numbered along the chain shown (N, C = ends). Where no end group is shown, it is not given here.

Tests used:
[1] = molecular target: T1, interaction of SARS-CoV-2 S1 and hACE2 in hACE2-overexpressed HEK293 cells (Severe acute respiratory syndrome coronavirus 2, UniProt P0DTC2); type: cell-based, human
T1 construct: S1 protein-His Tag (AcroBiosystems, S1N-C52H3-100UG, USA); AcroBiosystems (S1 protein) 145033; S1N-C52H3-100UG; host or cells: HEK293

[2] = molecular target: T2, S1 subunit of SARS-CoV-2 (Severe acute respiratory syndrome coronavirus 2, UniProt P0DTC2); type: binding
T2 construct: ACE2 and S1 subunits of SARS-CoV-2; His Tag; purchased AcroBiosystems S1N-C52H3-100UG

CC[C@H](C)[C@H](NC(=O)[C@H](CCCNC(=N)N)NC(=O)[C@@H]1CSSC[C@H](NC(=O)CNC(=O)CNC(=O)[C@@H]2CCCN2C(=O)[C@H](CO)NC(=O)[C@H](C)NC(=O)[C@H](CC(C)C)NC(=O)[C@H](CO)NC(=O)[C@H](CO)NC(=O)[C@H](CCCCN)NC(=O)[C@H](Cc2ccc(O)cc2)NC(=O)[C@H](Cc2ccccc2)NC(=O)[C@H](CC(C)C)NC(=O)[C@H](CC(=O)O)NC(=O)[C@H](CCC(=O)O)NC(=O)[C@@H]2CCCCNC(=O)C[C@H](NC(=O)[C@H](CCCCN)NC(=O)[C@H](CC(=O)O)NC(=O)[C@H](CC(C)C)NC(=O)[C@H](Cc3ccccc3)NC(=O)[C@H](CC(N)=O)NC(=O)[C@H](C)NC(=O)[C@H](C)NC(=O)[C@H](CCC(N)=O)NC(=O)[C@@H](N)CC(C)C)C(=O)N[C@@H](CC(N)=O)C(=O)N[C@@H](CC(=O)O)C(=O)N[C@@H](CCC(=O)O)C(=O)N2)C(=O)N[C@@H](CC(C)C)C(=O)NCC(=O)N[C@@H](CCCCN)C(=O)NCC(=O)N[C@@H](CC(=O)O)C(=O)N1)C(=O)N[C@@H](CC(C)C)C(=O)O [CSNP2] (H-LQAANFLDKDNDEKEDLFYKSSLASPGGCLGKGDCRIL-OH; lactam 10-14; disulfide 29-35; N-terminus and C-terminus assumed)
effect on membrane localization of S1 [1]: completely blocked the membrane localization of S1

CSNP3 (ENAINFLDKDNHEKEDLFYQ; not fully specified)
effect on S1-ACE2 interaction [1]: completely eliminated the S1-ACE2 interaction
dependent binding to S1 [2]: no dependent binding
